Source: patent publication US20240390512A1 (Daiichi Sankyo, published 2024)

T1: EC5 deletion mutant of human CDH6, on cells (human, UniProt P55285 54-790)
T1 construct: in p3×FLAG-CMV-9; also called EC5-deleted hCDH6
T1 sequence: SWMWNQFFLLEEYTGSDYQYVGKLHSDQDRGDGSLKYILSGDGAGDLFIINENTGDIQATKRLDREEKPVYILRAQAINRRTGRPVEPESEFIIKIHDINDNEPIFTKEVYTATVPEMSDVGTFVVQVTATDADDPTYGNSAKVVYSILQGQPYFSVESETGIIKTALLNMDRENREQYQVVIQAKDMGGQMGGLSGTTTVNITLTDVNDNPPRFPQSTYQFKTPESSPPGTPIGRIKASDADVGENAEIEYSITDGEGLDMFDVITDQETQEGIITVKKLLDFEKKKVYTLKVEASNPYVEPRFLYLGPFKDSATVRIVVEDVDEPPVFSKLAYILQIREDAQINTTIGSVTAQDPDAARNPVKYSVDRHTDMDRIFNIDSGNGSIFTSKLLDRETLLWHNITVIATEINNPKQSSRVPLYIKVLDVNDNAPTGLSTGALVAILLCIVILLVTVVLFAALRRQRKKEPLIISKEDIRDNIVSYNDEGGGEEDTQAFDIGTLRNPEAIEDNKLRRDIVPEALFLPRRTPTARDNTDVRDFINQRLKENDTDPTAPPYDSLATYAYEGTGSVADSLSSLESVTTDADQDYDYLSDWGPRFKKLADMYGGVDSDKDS

T2: human CDH6 (cadherin-6), full-length, on cells (human, UniProt P55285 54-790)
T2 construct: also called hCDH6; full-length hCDH6
T2 sequence: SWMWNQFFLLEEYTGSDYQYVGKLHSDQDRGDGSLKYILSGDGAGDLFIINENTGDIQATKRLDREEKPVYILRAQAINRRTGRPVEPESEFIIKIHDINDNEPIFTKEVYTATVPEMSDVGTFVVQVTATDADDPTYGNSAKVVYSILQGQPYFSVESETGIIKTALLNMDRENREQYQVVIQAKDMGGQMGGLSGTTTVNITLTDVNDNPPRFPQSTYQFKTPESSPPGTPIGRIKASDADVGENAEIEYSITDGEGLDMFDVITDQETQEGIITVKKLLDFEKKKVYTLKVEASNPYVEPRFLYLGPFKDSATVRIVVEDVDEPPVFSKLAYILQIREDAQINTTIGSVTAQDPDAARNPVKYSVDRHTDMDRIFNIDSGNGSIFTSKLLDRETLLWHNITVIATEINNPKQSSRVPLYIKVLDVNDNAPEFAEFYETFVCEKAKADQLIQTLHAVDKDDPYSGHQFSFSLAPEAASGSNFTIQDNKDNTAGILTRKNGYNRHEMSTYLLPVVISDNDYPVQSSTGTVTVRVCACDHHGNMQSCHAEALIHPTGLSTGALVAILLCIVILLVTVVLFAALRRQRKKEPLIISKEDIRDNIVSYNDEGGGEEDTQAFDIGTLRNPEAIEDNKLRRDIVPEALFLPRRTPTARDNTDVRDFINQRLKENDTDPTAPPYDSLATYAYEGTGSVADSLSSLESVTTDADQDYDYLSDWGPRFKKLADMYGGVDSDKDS

T3: rat CDH6, on cells (rat, UniProt P55280 54-789)
T3 construct: also called rCDH6; NP_037059
T3 sequence: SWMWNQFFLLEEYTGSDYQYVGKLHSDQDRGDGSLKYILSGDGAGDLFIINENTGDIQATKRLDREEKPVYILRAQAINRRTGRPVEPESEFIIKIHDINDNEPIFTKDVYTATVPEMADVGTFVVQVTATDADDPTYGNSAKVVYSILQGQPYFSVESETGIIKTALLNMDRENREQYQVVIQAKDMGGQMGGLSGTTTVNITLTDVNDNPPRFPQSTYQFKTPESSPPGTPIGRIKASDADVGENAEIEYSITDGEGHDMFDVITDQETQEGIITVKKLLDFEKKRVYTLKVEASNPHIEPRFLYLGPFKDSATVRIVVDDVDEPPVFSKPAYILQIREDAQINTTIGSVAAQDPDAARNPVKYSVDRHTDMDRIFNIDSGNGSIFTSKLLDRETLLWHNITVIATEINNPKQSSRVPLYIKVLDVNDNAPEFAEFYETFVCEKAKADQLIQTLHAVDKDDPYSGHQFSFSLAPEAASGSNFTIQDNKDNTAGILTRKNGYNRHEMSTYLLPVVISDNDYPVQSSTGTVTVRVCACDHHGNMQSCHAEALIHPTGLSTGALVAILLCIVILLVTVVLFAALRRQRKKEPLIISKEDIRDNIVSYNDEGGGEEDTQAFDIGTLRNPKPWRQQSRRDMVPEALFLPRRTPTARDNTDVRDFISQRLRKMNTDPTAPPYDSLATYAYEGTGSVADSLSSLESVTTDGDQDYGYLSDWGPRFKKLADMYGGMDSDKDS

T4: Recombinant Human CDH6 Fc His chimera (R&D Systems, Inc.) (human, UniProt P55285 54-615)
T4 construct: Bought reagent; also called the antigen; human CDH6 antigen; Fc part of the bought chimera not given; His tag of the bought chimera
T4 sequence: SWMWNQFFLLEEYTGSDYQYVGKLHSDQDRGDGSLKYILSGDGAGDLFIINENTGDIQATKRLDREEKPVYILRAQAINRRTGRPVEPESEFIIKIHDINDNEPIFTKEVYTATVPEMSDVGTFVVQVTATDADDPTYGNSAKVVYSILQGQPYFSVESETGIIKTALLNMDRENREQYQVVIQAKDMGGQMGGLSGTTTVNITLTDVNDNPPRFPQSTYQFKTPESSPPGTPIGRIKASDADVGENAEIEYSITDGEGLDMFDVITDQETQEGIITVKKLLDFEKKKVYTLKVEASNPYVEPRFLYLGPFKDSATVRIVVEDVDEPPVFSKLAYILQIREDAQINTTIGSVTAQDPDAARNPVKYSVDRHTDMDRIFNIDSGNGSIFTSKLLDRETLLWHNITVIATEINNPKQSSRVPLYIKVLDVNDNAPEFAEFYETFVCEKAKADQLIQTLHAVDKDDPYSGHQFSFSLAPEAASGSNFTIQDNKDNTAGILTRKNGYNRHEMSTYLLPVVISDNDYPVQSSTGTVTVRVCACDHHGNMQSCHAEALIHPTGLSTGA

T5: mouse CDH6, on cells (mouse, UniProt P97326 54-790)
T5 construct: also called mCDH6; NP_031692
T5 sequence: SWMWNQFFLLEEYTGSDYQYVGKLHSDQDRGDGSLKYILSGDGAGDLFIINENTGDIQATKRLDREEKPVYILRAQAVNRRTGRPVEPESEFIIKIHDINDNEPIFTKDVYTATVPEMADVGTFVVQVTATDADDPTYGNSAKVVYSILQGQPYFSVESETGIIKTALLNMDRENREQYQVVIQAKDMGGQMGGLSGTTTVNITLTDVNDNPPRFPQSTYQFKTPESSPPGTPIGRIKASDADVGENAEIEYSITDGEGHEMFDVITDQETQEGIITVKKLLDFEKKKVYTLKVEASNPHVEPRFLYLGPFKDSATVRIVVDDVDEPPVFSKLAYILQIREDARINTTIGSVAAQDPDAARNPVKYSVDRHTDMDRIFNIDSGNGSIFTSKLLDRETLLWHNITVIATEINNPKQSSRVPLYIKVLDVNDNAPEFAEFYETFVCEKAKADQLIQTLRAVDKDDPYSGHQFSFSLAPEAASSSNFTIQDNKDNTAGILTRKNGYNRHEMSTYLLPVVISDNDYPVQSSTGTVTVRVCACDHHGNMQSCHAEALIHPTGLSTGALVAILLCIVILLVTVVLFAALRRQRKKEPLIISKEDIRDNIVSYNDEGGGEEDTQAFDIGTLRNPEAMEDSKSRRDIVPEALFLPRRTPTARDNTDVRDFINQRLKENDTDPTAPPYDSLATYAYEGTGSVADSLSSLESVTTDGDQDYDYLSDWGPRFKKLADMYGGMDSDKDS

T6: EC3 deletion mutant of human CDH6, on cells (human, UniProt P55285 54-790)
T6 construct: in p3×FLAG-CMV-9; also called EC3-deleted hCDH6
T6 sequence: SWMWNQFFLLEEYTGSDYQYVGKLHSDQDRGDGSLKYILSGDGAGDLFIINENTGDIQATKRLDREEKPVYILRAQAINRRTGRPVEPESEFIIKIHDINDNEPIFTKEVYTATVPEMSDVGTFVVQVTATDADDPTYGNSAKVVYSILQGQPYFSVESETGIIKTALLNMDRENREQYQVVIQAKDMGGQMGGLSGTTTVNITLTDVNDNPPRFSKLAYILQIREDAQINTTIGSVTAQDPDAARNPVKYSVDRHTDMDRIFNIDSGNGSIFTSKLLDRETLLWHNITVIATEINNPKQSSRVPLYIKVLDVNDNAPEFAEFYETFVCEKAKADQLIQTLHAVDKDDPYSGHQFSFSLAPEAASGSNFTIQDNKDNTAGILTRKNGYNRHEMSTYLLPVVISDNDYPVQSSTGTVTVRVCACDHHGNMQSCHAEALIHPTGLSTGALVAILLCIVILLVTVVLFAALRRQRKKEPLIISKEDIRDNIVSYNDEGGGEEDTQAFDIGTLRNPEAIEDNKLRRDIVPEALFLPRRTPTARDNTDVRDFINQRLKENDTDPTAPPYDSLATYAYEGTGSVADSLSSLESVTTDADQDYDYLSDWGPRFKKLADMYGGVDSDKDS

B1: anti-CDH6 antibody NOV0712 (antibody, human IgG1, kappa, V domains shown)
VH: QVQLLESGGGLVQPGGSLRLSCAASGFTFSSHGMHWVRQAPGKGLEWVSVISGSGSNTGYADSVKGRFTISRDNSKNTLYLQMNSLRAEDTAVYYCARQWGSYAFDSWGQGTLVTVSS
VL: DIQMTQSPSSLSASVGDRVTITCRASQSISSYLNWYQQKPGKAPKLLIYAVSTLQSGVPSRFSGSGSGTDFTLTISSLQPEDFATYYCQQSGTFPPTTFGQGTKVEIKR
notes: Made after WO 2016/024195; also called NOV0712 antibody
B2: humanized anti-CDH6 antibody H04L02 (antibody, human IgG1, kappa, V domains shown)
VH: QVQLVQSGAEVKKPGASVKVSCKASGYTFTRNFMHWIRQAPGQGLEWMGWIYPGDGETEYAQKFQGRVTLTADRSTSTAYMELSSLRSEDTAVYYCARGVYGGFAGGYFDFWGQGTLVTVSS
VL: DIQMTQSPSSLSASVGDRVTITCKASQNIYKNLAWYQQKPGKAPKLLIYDANTLQTGVPSRFSGSGSGSDFTLTISSLQPEDFATYFCQQYYSGWAFGQGTKVEIKR
notes: hH04 heavy chain and hL02 light chain, human IgG1 / kappa; also called H04L02 antibody

Columns and labels:
[1] = biological target: T1, EC5 deletion mutant of human CDH6, on …; test: flow cytometry; 293α cells transfected with EC5-deleted hCDH6 (open line) against untransfected 293α cells (shaded); APC anti-human IgG goat F(ab')2; antibody concentration not given
[2] = biological target: T2, human CDH6 (cadherin-6), full-length, …; test: flow cytometry; 293α cells transfected with full-length hCDH6 (open line) against untransfected 293α cells (shaded); APC anti-human IgG goat F(ab')2; antibody concentration not given
rat CDH6, on cells = biological target: T3, rat CDH6, on cells; test: flow cytometry; 293α cells transfected with rCDH6; PE anti-human IgG Fc(gamma) goat F(ab')
[3] = biological target: T4, Recombinant Human CDH6 Fc His chimera …; test: SPR (Biacore T200); antigen captured by immobilized anti-His antibody, antibody as analyte 0.391 to 100 nM; steady state affinity model
mouse CDH6, on cells = biological target: T5, mouse CDH6, on cells; test: flow cytometry; 293α cells transfected with mCDH6; PE anti-human IgG Fc(gamma) goat F(ab')
[4] = biological target: T6, EC3 deletion mutant of human CDH6, on …; test: flow cytometry; 293α cells transfected with EC3-deleted hCDH6 (open line) against untransfected 293α cells (shaded); APC anti-human IgG goat F(ab')2; antibody concentration not given

Binder	binding result [1]	binding result [2]	binding result (rat CDH6, on cells)	Kd [3] [nM]	binding result (mouse CDH6, on cells)	binding result [4]
B1	no binding	binds				
B2			no binding (tested: about 4, unit not printed on the axis)	1.1	no binding (tested: about 4, unit not printed on the axis)	no binding
